The values below are quoted from earlier work in paper PMC3433420.

Common to all, as to conditions: cited from earlier work
The target of series [1] is SYK-NC (Homo sapiens) (UniProt P43405).
The target in series [2] is PIK3R1-N (Homo sapiens) (UniProt P27986).
Series [3] concerns the target ABL2 (Homo sapiens) (UniProt P42684).
The target in series [4] is PIK3R3-NC (Homo sapiens) (UniProt Q92569).
Series [5] deals with RASA1-N (Homo sapiens) (UniProt P20936).
Series [6] concerns the target TENC1 (Homo sapiens) (UniProt Q63HR2).
Series [7] concerns the target VAV1 (Homo sapiens) (UniProt P15498).
The target in series [8] is PIK3R1-NC (Homo sapiens) (UniProt P27986).
PIK3R1-NC (Homo sapiens), sequence (P27986 328-723): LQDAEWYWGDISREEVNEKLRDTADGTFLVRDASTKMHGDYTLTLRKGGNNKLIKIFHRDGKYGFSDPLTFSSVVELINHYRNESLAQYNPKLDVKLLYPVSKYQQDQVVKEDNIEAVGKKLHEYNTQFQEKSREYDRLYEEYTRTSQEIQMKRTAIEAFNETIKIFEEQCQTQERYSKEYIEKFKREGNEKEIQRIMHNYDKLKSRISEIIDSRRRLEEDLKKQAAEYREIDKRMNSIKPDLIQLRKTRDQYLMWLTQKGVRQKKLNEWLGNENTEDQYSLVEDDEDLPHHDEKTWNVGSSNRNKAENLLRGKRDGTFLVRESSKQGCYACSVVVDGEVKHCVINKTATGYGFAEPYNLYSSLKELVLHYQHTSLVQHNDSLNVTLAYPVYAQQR
The target in series [9] is PIK3R3-N (Homo sapiens) (UniProt Q92569).
In series [10] the target is PIK3R2-NC (Homo sapiens) (UniProt O00459).
PIK3R2-NC (Homo sapiens), sequence (O00459 325-721): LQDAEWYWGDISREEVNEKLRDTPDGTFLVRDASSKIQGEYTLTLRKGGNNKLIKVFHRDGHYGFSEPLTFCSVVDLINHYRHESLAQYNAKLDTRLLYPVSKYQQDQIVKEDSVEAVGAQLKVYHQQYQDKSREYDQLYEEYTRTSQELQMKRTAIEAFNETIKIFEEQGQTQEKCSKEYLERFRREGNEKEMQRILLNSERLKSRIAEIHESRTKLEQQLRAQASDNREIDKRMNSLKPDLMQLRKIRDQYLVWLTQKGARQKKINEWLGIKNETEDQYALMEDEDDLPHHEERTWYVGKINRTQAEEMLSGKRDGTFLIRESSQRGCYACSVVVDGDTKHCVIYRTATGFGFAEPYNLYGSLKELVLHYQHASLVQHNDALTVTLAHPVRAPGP
In series [11] the target is PIK3R3-C (Homo sapiens) (UniProt Q92569).
Series [12] has as its target BLK (Homo sapiens) (UniProt P51451).
Series [13] deals with ABL2 (Homo sapiens) (UniProt P42684). The source holds these as a separate data set.
ABL2 (Homo sapiens), sequence (P42684 168-268): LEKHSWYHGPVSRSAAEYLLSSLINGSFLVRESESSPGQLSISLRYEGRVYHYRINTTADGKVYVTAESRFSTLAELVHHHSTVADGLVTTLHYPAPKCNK
For series [14] the target is unchanged. The source holds these as a separate data set.
Series [15] concerns the target SYK-NC (Homo sapiens) (UniProt P43405). This is another data set of the same source.
For series [16], the target named is SYK-C (Homo sapiens) (UniProt P43405).
Series [17] addresses GRB7 (Homo sapiens) (UniProt Q14451).
In series [18] the target is PIK3R1-N (Homo sapiens) (UniProt P27986). This is another data set of the same source.
The target in series [19] is BLK (Homo sapiens) (UniProt P51451). The source holds these as a separate data set.
BLK (Homo sapiens), sequence (P51451 119-225): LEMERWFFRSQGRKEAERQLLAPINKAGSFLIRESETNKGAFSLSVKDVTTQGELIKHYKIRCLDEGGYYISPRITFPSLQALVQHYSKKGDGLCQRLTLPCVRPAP
Series [20] addresses ITK (Homo sapiens) (UniProt Q08881).
Series [21] addresses ABL2 (Homo sapiens) (UniProt P42684). The source holds these as a separate data set.
Series [22] deals with PLCG2-NC (Homo sapiens) (UniProt P16885).
PLCG2-NC (Homo sapiens), sequence (P16885 527-740): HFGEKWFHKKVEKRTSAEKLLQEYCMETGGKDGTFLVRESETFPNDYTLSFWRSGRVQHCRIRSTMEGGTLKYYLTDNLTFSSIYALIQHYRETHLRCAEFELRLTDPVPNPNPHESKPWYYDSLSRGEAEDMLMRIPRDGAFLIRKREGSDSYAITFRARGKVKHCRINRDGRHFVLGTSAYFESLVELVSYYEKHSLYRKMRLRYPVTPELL
Series [23] deals with PIK3R3-NC (Homo sapiens) (UniProt Q92569). The source holds these as a separate data set.
Series [24] deals with RASA1-N (Homo sapiens) (UniProt P20936). This is another data set of the same source.
The target in series [25] is GRB2 (Homo sapiens) (UniProt P62993).
GRB2 (Homo sapiens), sequence (P62993 55-157): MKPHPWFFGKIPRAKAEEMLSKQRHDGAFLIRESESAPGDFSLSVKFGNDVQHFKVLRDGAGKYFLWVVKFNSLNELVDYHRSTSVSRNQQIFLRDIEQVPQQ
The target of series [26] is PIK3R1-NC (Homo sapiens) (UniProt P27986). This is another data set of the same source.
Series [27] addresses ABL1 (Homo sapiens) (UniProt P00519).
For series [28], the target named is NCK2 (Homo sapiens) (UniProt O43639).
NCK2 (Homo sapiens), sequence (O43639 280-380): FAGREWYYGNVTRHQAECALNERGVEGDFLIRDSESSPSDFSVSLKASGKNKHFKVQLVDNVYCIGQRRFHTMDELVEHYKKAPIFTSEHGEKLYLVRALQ
For series [29], the target named is GRB10 (Homo sapiens) (UniProt Q13322).
GRB10 (Homo sapiens), sequence (Q13322 488-579): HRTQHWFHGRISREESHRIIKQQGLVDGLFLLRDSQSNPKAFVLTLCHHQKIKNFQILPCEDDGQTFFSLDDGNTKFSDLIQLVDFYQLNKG
Series [30] concerns the target PIK3R3-N (Homo sapiens) (UniProt Q92569). This is another data set of the same source.
In series [31] the target is SRC (Homo sapiens) (UniProt P12931).
For series [32], the target named is PIK3R2-NC (Homo sapiens) (UniProt O00459). The source holds these as a separate data set.
Series [33] concerns the target VAV2 (Homo sapiens) (UniProt P52735).
Series [34] has as its target YES1 (Homo sapiens) (UniProt P07947).
Series [35] concerns the target PIK3R2-N (Homo sapiens) (UniProt O00459).
Series [36] has as its target ITK (Homo sapiens) (UniProt Q08881). This is another data set of the same source.
For series [37], the target named is ABL2 (Homo sapiens) (UniProt P42684). The source holds these as a separate data set.
The target is the same in series [38]. This is another data set of the same source.
Series [39] concerns the target PIK3R3-NC (Homo sapiens) (UniProt Q92569). The source holds these as a separate data set.
Series [40] addresses RASA1-N (Homo sapiens) (UniProt P20936). This is another data set of the same source.
The target in series [41] is ZAP70-NC (Homo sapiens) (UniProt P43403).
ZAP70-NC (Homo sapiens), sequence (P43403 5-259): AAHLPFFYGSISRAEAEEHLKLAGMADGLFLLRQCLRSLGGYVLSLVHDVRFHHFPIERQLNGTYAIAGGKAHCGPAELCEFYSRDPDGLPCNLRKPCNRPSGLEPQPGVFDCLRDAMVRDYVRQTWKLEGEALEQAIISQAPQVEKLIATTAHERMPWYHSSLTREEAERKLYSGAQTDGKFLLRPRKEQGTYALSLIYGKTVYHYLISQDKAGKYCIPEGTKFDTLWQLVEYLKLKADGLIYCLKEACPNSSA
Series [42] has as its target GRB2 (Homo sapiens) (UniProt P62993). This is another data set of the same source.
The target is the same in series [43]. The source holds these as a separate data set.
Series [44] deals with PIK3R1-NC (Homo sapiens) (UniProt P27986). The source holds these as a separate data set.
The target in series [45] is NCK2 (Homo sapiens) (UniProt O43639). The source holds these as a separate data set.
The target of series [46] is PIK3R3-N (Homo sapiens) (UniProt Q92569). The source holds these as a separate data set.
In series [47] the target is PIK3R2-NC (Homo sapiens) (UniProt O00459). The source holds these as a separate data set.
Series [48] deals with SHC1-PTB (Homo sapiens) (UniProt P29353).
SHC1-PTB (Homo sapiens), sequence (P29353 483-583): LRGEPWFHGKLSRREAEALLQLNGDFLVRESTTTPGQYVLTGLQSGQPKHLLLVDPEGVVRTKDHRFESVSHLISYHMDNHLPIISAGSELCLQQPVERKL
Series [49] shares this target. The source holds these as a separate data set.
The target in series [50] is VAV2 (Homo sapiens) (UniProt P52735). The source holds these as a separate data set.
VAV2 (Homo sapiens), sequence (P52735 668-772): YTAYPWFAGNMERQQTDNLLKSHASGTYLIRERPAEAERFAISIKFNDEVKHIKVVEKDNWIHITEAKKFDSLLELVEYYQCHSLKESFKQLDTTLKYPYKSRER
In series [51] the target is PIK3R2-N (Homo sapiens) (UniProt O00459). The source holds these as a separate data set.
PIK3R2-N (Homo sapiens), sequence (O00459 325-721): as the sequence (O00459 325-721) above
Series [52] concerns the target ABL2 (Homo sapiens) (UniProt P42684). This is another data set of the same source.
In series [53] the target is YES1 (Homo sapiens) (UniProt P07947). The source holds these as a separate data set.
YES1 (Homo sapiens), sequence (P07947 153-260): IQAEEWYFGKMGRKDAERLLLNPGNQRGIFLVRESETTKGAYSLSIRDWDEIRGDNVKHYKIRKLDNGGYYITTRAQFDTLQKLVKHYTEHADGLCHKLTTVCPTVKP
Series [54] has as its target SHB (Homo sapiens) (UniProt Q15464).

Like-named read-outs stand apart in the source and are kept apart here.

RASA1-N (Homo sapiens), sequence (P20936 176-446): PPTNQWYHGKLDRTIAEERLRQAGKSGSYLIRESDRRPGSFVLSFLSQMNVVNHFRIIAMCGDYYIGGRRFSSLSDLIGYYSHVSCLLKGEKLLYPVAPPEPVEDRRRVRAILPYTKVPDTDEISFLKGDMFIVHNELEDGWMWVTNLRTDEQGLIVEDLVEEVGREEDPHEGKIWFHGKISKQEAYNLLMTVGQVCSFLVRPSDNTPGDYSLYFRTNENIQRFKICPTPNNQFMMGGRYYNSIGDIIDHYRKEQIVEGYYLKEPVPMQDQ
ITK (Homo sapiens), sequence (Q08881 234-343): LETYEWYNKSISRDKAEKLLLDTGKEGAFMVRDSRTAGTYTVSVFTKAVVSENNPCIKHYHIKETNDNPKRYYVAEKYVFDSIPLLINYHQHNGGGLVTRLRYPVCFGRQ
PIK3R1-N (Homo sapiens), sequence (P27986 328-723): as the sequence (P27986 328-723) above
GRB7 (Homo sapiens), sequence (Q14451 426-532): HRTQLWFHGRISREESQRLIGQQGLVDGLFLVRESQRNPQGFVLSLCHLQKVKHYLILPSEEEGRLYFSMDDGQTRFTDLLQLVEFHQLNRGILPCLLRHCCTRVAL
TENC1 (Homo sapiens), sequence (Q63HR2 1135-1252): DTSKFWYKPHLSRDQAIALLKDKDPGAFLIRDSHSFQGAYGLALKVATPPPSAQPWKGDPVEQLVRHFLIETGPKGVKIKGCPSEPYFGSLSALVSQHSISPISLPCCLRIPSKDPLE
SHB (Homo sapiens), sequence (Q15464 405-509): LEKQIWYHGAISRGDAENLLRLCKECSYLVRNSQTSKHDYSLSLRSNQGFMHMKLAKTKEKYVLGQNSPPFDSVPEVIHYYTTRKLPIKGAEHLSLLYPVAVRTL
ABL1 (Homo sapiens), sequence (P00519 122-222): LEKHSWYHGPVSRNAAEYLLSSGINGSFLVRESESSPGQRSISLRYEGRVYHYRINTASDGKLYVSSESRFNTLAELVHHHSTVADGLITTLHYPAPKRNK
VAV1 (Homo sapiens), sequence (P15498 666-770): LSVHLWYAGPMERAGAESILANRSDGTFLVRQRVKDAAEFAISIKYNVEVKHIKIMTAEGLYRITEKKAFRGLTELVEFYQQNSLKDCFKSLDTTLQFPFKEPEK

For …pYEYMDVGS, the apparent Kd (screen) in series [1] was 0.851 µM; in series [2], 1.25 µM; in series [3] it was 0.158 µM; in series [4], 0.097 µM; in series [5], 0.671 µM; in series [6], 0.903 µM. Also, the apparent Kd (screen) is 2 µM in [7]; 0.375 µM in series [8]; 0.553 µM in series [9]; 0.385 µM in [10]; 0.27 µM in series [11].

Take …pYHAEGGKVd: the apparent Kd (screen) was 1.71 µM in series [12], 1.08 µM in series [13] and 2 µM in series [14].

For …pYINQSVPKd, the apparent Kd (screen) was 0.908 µM in series [15]; 1.92 µM in [16]; 1.99 µM in [17]; 1.07 µM in [18]; 0.3 µM in series [19]; 0.219 µM in series [20]. The apparent Kd (screen) in [21] was 0.152 µM; in series [22], 1.63 µM; in series [23], 1.02 µM; in series [24], 0.18 µM; in [25], 0.198 µM; in series [26] it was 0.67 µM. Also, the apparent Kd (screen) was 0.916 µM in [27]; 1.1 µM in series [28]; 1.3 µM in series [29]; 0.507 µM in series [30]; 1.79 µM in series [31]; 1.41 µM in series [32]. Further, the apparent Kd (screen) in series [33] was 0.542 µM; in series [34] it was 0.337 µM; in series [35], 0.453 µM.

Regarding …pYLNTVQPTd, the apparent Kd (screen) in series [36] was 1.76 µM; in series [37] it was 0.12 µM; in series [38], 0.085 µM; in series [39], 1.69 µM; in series [40], 0.388 µM; in series [41] it was 1.14 µM. Besides, the apparent Kd (screen) in series [42] is 0.422 µM; in series [43], 0.724 µM; in series [44] it was 1.57 µM; in series [45], 0.326 µM; in series [46], 0.838 µM; in [47] it was 0.857 µM. Besides, the apparent Kd (screen) in series [48] was 0.173 µM; in series [49], 0.133 µM; in series [50], 0.373 µM; in [51] it was 0.763 µM.

Take …pYSSDPTGAd: the apparent Kd (screen) in series [52] was 2 µM; in series [53] it was 0.295 µM; in series [54], 0.862 µM.
